Our source for the Ki values is patent publication US20190119377A1.

Test [1] has as its target human FcRn on FcRn-transfected 293FS cells (293FS+FcRn+β2m (clone #2)) (human) (UniProt P55899). Nature of the test: competition flow cytometry; displacement of AF488-labelled IgG1 (3.33 nM) from human FcRn-transfected 293FS cells, pH 5.5.
The target of test [2] is CD16 on CD16-transfected NFAT-bla Jurkat cells (UniProt P08637). The experiment in a line: competition flow cytometry; displacement of AF488-labelled human IgG1 (25 nM) from CD16-transfected NFAT-bla Jurkat cells. A general note: Flow cytometry measures light scatter and fluorescence of single cells or particles in a stream.
UniProt P08637, sequence (P08637 17-254 limits assumed): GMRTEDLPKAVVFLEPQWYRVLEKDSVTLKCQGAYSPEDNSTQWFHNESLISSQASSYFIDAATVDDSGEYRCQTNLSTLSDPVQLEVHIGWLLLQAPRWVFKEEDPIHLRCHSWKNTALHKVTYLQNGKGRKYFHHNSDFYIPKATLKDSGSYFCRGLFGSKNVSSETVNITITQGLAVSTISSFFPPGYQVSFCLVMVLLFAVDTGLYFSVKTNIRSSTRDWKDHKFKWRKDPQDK

UniProt P55899, sequence (P55899 24-365, chain 1 of 2): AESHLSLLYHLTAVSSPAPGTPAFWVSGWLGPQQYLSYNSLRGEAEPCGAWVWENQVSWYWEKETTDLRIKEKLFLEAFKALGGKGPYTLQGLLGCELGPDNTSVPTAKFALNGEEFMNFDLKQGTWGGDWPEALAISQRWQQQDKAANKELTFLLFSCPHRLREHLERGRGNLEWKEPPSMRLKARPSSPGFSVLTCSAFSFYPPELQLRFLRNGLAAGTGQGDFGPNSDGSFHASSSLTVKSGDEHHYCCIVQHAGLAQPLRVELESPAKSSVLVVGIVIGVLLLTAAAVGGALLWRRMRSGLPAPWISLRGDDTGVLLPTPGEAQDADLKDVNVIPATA
UniProt P55899, sequence (P61769 21-119, chain 2 of 2, further chain): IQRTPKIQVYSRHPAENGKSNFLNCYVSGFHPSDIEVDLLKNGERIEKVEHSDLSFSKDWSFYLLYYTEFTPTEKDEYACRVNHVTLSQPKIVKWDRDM

In the case of human IgG1 (antibody), the values for the Ki in test [1] and in test [2] were 0.2 µM and 0.225 µM, respectively.
